Results as given in IntAct's records for PubMed 24275654.

B1: Tubulin beta-4A chain (Homo sapiens), P04350 (parent)
chain: MREIVHLQAGQCGNQIGAKFWEVISDEHGIDPTGTYHGDSDLQLERINVYYNEATGGNYVPRAVLVDLEPGTMDSVRSGPFGQIFRPDNFVFGQSGAGNNWAKGHYTEGAELVDAVLDVVRKEAESCDCLQGFQLTHSLGGGTGSGMGTLLISKIREEFPDRIMNTFSVVPSPKVSDTVVEPYNATLSVHQLVENTDETYCIDNEALYDICFRTLKLTTPTYGDLNHLVSATMSGVTTCLRFPGQLNADLRKLAVNMVPFPRLHFFMPGFAPLTSRGSQQYRALTVPELTQQMFDAKNMMAACDPRHGRYLTVAAVFRGRMSMKEVDEQMLSVQSKNSSYFVEWIPNNVKTAVCDIPPRGLKMAATFIGNSTAIQELFKRISEQFTAMFRRKAFLHWYTGEGMDEMEFTEAESNMNDLVSEYQQYQDATAEEGEFEEEAEEEVA
B2: Tubulin beta chain (Homo sapiens), P07437 (parent)
chain: MREIVHIQAGQCGNQIGAKFWEVISDEHGIDPTGTYHGDSDLQLDRISVYYNEATGGKYVPRAILVDLEPGTMDSVRSGPFGQIFRPDNFVFGQSGAGNNWAKGHYTEGAELVDSVLDVVRKEAESCDCLQGFQLTHSLGGGTGSGMGTLLISKIREEYPDRIMNTFSVVPSPKVSDTVVEPYNATLSVHQLVENTDETYCIDNEALYDICFRTLKLTTPTYGDLNHLVSATMSGVTTCLRFPGQLNADLRKLAVNMVPFPRLHFFMPGFAPLTSRGSQQYRALTVPELTQQVFDAKNMMAACDPRHGRYLTVAAVFRGRMSMKEVDEQMLNVQNKNSSYFVEWIPNNVKTAVCDIPPRGLKMAVTFIGNSTAIQELFKRISEQFTAMFRRKAFLHWYTGEGMDEMEFTEAESNMNDLVSEYQQYQDATAEEEEDFGEEAEEEA
B3: Tubulin beta-6 chain (Homo sapiens), Q9BUF5 (parent)
chain: MREIVHIQAGQCGNQIGTKFWEVISDEHGIDPAGGYVGDSALQLERINVYYNESSSQKYVPRAALVDLEPGTMDSVRSGPFGQLFRPDNFIFGQTGAGNNWAKGHYTEGAELVDAVLDVVRKECEHCDCLQGFQLTHSLGGGTGSGMGTLLISKIREEFPDRIMNTFSVMPSPKVSDTVVEPYNATLSVHQLVENTDETYCIDNEALYDICFRTLKLTTPTYGDLNHLVSATMSGVTTSLRFPGQLNADLRKLAVNMVPFPRLHFFMPGFAPLTSRGSQQYRALTVPELTQQMFDARNMMAACDPRHGRYLTVATVFRGPMSMKEVDEQMLAIQSKNSSYFVEWIPNNVKVAVCDIPPRGLKMASTFIGNSTAIQELFKRISEQFSAMFRRKAFLHWFTGEGMDEMEFTEAESNMNDLVSEYQQYQDATANDGEEAFEDEEEEIDG

Variants of: B1
Details: with lrrk2_human LRRK2, Q5S007
Sequence of lrrk2_human LRRK2, Q5S007 (Q5S007 whole entry): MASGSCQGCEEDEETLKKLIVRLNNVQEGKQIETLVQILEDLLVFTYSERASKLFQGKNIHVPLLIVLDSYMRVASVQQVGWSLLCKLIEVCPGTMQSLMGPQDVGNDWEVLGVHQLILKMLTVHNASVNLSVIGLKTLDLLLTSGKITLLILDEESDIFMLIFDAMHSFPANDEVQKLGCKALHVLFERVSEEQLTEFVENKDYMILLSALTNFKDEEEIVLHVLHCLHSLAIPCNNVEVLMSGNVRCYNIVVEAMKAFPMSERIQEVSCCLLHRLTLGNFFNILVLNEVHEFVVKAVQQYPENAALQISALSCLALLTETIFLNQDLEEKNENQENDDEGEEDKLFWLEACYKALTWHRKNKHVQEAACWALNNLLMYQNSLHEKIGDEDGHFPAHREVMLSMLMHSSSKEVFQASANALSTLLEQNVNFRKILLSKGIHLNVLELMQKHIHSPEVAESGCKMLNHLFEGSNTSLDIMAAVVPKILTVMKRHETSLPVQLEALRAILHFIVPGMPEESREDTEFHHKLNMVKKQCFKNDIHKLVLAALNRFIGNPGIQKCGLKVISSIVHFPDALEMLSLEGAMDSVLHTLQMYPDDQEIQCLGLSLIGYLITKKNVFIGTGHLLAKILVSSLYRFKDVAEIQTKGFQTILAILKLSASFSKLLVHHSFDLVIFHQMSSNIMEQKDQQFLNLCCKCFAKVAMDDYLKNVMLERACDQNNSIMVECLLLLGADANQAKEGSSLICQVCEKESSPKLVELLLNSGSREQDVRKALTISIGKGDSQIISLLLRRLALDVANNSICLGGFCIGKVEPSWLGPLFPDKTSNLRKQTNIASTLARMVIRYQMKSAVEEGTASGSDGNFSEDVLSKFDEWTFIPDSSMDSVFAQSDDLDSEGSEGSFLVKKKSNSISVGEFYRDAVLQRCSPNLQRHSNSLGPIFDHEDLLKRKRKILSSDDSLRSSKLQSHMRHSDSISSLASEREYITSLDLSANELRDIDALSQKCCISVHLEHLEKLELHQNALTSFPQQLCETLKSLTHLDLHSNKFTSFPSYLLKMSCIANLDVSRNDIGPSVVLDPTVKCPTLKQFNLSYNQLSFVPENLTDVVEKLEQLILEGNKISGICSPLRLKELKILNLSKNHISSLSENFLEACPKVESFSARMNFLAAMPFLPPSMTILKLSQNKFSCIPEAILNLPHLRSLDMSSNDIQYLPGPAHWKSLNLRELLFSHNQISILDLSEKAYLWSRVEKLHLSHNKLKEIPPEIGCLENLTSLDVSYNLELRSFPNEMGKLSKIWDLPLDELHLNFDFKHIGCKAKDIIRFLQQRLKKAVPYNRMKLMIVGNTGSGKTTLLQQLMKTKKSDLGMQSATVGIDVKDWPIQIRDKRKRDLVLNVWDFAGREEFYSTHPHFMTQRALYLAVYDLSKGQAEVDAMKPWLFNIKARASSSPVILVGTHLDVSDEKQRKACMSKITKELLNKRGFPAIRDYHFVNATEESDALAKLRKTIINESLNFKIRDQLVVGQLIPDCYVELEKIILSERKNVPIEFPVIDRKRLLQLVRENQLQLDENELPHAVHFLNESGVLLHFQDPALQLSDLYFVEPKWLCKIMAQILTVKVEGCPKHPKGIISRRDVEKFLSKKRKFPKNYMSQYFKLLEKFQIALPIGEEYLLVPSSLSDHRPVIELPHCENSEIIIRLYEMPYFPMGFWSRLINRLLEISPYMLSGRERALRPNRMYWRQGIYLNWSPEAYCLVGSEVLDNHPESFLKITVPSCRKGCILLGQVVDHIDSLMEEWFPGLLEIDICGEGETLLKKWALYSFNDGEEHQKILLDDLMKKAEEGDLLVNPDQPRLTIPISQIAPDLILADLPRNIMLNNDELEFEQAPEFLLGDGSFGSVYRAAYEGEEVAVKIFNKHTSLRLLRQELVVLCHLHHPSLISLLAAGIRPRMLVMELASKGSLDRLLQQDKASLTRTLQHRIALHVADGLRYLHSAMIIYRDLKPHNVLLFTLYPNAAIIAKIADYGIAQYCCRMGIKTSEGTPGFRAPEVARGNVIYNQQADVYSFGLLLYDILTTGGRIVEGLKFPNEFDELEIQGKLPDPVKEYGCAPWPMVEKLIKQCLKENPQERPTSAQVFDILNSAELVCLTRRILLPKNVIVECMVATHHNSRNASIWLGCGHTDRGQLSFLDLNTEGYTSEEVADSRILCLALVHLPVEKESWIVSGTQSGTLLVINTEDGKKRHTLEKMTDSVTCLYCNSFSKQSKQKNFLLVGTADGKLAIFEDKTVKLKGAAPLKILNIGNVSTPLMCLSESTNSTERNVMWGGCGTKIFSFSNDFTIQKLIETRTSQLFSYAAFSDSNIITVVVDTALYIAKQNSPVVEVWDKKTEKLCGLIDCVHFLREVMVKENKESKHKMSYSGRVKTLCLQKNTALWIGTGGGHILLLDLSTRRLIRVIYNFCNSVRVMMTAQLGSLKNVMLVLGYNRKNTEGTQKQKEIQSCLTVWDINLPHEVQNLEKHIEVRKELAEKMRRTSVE

Row | Variant | effect of a mutation on the interaction
1 | A364D | disrupting interaction
2 | A364E | disrupting interaction
3 | A364S | disrupting interaction

Variants of: B2
Details: with lrrk2_human LRRK2, Q5S007

Row | Variant | effect of a mutation on the interaction
4 | A364D | disrupting interaction
5 | A364E | disrupting interaction
6 | A364S | disrupting interaction

Variants of: B3
Details: with lrrk2_human LRRK2, Q5S007

Row | Variant | effect of a mutation on the interaction
7 | P320R;K362S | disrupting interaction
8 | P320R;A364S | disrupting interaction
